B1: 15 bp FAM GT-rich dsDNA (dsDNA)
DNA 1: GGGGTGATTGTTCAG
DNA 2: CTGAACAATCACCCC

Experiments:
[1] = molecular target: hSSRP1-PH2 (Leu101-Thr195) (human); test: SEC; molecular weight calibration of the single protein in solution
[2] = molecular target: hSSRP1-HMG546-616 (Homo sapiens, UniProt Q08945 546-616); test: EMSA; EMSA: 5 uM DNA, 137 mM NaCl, 2.7 mM KCl, 10 mM Na2HPO4, 2 mM KH2PO4 pH 7.4, 30 min on ice, 12% native PAGE; single-molecule: 10 mM Tris, 20 mM EDTA, 25 mM KCl; settings: protein: recombinant; tags: GST or His-SUMO fusion vector; GST cleaved; label: 5'-FAM on strand 1; blunt
[3] = molecular target: hSSRP1-HMG520-616 (Homo sapiens, UniProt Q08945 520-616); test: as above; settings: protein: recombinant; tags: GST or His-SUMO fusion vector; GST cleaved; label: 5'-FAM on strand 1; blunt
hSSRP1-HMG520-616, sequence (Q08945 520-616): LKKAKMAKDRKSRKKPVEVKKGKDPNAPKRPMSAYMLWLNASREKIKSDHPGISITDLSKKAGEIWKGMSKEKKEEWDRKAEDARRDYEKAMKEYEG

hSSRP1-HMG546-616, sequence (Q08945 546-616): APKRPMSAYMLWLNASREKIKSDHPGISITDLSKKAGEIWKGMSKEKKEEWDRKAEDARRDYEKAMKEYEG

Molecule	stoichiometry N [1]	binding result [2]	binding result [3]
hSSRP1-PH2 (Leu101-Thr195) (domain or fragment)	4		
B1		no binding	binds

— article PMC8639466
